Source: patent US20190002527A1 (CHILDREN S MEDICAL CENTER, published 2019)
One block for each binder: values may come before it.

How the values were obtained:
[1] = biological target: T1, CD98 (cluster of differentiation 98) (human, UniProt Q01650 1-507); assay: co-IP from transfected HEK293T cells, IP anti-CD98, blot anti-myc
T1 construct: Endogenous CD98 in lysates of human HUVE or HEK293T cells; also called LAT1; transmembrane amino acid transporter CD98
Source text: (§1) FIG. 2A depicts a schematic representation of TRPV4. […] The right panel gives the Western blotting for the expression of each transgene in total cell lysates of respective transfectants.

[2] = biological target: T2, TRPV4 (transient receptor potential vanilloid 4) (human, UniProt Q9HBA0 1-871); assay: co-IP from transfected HEK293T cells, IP anti-TRPV4, blot anti-HA
T2 construct: Endogenous TRPV4 in lysates of human HUVE or HEK293T cells, co-immunoprecipitation; also called TRPV4 membrane ion channel
Source text: as §1

β1-integrin = biological target: T3, β1-integrin (human, UniProt P05556 21-798); assay: co-IP from transfected HEK293T cells, IP anti-β1-integrin, blot anti-HA
T3 construct: Endogenous β1-integrin in lysates of human HUVE or HEK293T cells; No signal peptide limits are stated; also called B1-integrin; ITGB1
Source text: as §1

T3 sequence (P05556 21-798 limits assumed): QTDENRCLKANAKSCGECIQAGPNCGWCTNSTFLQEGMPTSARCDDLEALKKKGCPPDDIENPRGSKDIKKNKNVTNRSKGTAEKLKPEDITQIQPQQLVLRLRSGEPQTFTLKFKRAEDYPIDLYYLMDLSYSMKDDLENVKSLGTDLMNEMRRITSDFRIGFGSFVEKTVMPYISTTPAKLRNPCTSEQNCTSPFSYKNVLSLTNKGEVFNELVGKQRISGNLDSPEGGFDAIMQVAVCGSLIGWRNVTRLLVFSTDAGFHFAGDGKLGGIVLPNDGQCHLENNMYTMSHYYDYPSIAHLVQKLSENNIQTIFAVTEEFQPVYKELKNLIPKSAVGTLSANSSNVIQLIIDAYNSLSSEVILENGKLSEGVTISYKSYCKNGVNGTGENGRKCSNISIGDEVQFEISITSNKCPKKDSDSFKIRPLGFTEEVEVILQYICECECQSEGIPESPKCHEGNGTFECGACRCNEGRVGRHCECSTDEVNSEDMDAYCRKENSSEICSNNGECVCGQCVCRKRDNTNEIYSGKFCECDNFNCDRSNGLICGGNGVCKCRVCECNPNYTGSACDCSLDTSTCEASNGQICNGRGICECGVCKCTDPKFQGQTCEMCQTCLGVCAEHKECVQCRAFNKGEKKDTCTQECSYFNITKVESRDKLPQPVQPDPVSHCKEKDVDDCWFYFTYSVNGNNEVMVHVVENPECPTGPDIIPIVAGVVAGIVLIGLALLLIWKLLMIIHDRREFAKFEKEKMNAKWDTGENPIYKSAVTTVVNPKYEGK
T1 sequence (Q01650 whole entry): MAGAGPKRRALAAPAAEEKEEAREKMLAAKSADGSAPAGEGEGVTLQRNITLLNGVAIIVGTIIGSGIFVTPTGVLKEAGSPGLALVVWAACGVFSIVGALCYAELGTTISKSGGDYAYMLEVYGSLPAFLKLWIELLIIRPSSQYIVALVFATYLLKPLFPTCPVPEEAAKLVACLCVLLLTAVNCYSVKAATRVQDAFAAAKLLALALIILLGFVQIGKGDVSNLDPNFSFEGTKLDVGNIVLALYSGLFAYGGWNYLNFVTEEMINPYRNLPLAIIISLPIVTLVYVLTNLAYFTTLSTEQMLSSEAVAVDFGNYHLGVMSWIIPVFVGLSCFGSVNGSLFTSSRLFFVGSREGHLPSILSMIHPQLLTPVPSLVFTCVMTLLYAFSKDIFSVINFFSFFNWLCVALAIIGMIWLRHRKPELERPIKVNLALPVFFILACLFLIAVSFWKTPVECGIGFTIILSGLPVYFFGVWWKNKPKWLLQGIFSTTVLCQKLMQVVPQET

- binding result [1]: no binding
B1: myc-linked TRPV4 lacking all ankyrin repeat domains (ΔAR1-3) (other)
chain: MADSSEGPRAGPGEVAELPGDESGTPGGEAFPLSSLANLFEGEDGSLSPSPADASRPAGPGDGRPNLRMKFQGAFRKGVPNPIDLLESTLYESSVVPGPKKAPMDSLFDYGTYRHHSSDNKRWRKKIIEKQPQSPKAPAPQPPPILKVFNRPILFDIVSRGSTADLDGLLPFLLTHKKRLTDEEFREPSTGKTCLPKALLNLSNGRNDTIPVLLDIAERTGNMREFINSPFRDIYYQARGRFFQPKDEGGYFYMRRQDSRGNTVLHALVAIADNTRENTKFVTKMYDLLLLKCARLFPDSNLEAVLNNTRHLSRKFKDWAYGPVYSSLYDLSSLDTCGEEASVLEILVYNSKIENRHEMLAVEPINELLRDKWRKFGAVSFYINVVSYLCAMVIFTLTAYYQPLEGTPPYPYRTTVDYLRLAGEVITLFTGVLFFFTNIKDLFMKKCPGVNSLFIDGSFQLLYFIYSVLVIVSAALYLAGIEAYLAVMVFALVLGWMNALYFTRGLKLTGTYSIMIQKILFKDLFRFLLVYLLFMIGYASALVSLLNPCANMKVCNEDQTNCTVPTYPSCRDSETFSTFLLDLFKLTIGMGDLEMLSSTKYPVVFIILLVTYIILTFVLLLNMLIALMGETVGQVSKESKHIWKLQWATTILDIERSFPVFLRKAFRSGEMVTVGKSSDGTPDRRWCFRVDEVNWSHWNQNLGIINEDPGKNETYQYYGFSHTVGRLRRDRWSSVVPRVVELNKNSNPDEVVVPLDSMGNPRCDGHQQGYPRKWRTDDAPL
notes: also called TRPV4 lacking all three ankyrin repeat domains; not shown: myc tag

- binding result [2]: no binding
- binding result (β1-integrin): no binding
B2: HA-linked CD98 that lacks high homology domain (ΔHH) (other)
chain: MELQPPEASIAVVSIPRQLPGSHSEAGVQGLSAGDDSETGSDCVTQAGLQLLASSDPPALASKNAEVTVETGFHHVSQADIEFLTSIDPTASASGSAGITGTMSQDTEVDMKEVELNELEPEKQPMNAASGAAMSLAGAEKNGLVKIKVAEDEAEAAAACRELPAQKWWHTGALYRIGDLQAFQGHGAGNLAGLKGRLDYLSSLKVKGLVLGPIHKNQKDDVAQTDLLQIDPNFGSKEDFDSLLQSAKKKSIRVILDLTPNYRGENSWFSTQVDTVATKVKDALEFWLQAGVDGFQVRDIENLKDASSFLAEWQNITKGFSEDRLLIAGTNSSDLQQILSLLESNKDLLLTSSYLSDSGSTGEHTKSLVTQYLNATGNRWCSWSLSQARLLTSFLPAQLLRLYQLMLFTLPGTPVFSYGDEIGLDAAALPGQPMEAPVMLWDESSFPDIPGAVSANMTVKGQSEDPGSLLSLFRRLSDQRSKERSLLHGDFHAFSAGPGLFSYIRHWDQNERFLVVLNFGDVGLSAGLQASDLPASASLPAKADLLLSTQPGREEGSPLELERLKLEPHEGLLLRFPYAA
notes: Built from 'deletion of a 50 amino acid (160-210aa) high homology domain'; also called CD98 lacking the high homology domain; not shown: HA tag
